The target of data set [1] is activated factor VIII (FVIIIa): Recombinate Antihemophilic Factor activated with thrombin (UniProt P00451).
The target in the next data set is factor X (FX) (UniProt P00742).
Sequence of UniProt P00742 (P00742 41-488): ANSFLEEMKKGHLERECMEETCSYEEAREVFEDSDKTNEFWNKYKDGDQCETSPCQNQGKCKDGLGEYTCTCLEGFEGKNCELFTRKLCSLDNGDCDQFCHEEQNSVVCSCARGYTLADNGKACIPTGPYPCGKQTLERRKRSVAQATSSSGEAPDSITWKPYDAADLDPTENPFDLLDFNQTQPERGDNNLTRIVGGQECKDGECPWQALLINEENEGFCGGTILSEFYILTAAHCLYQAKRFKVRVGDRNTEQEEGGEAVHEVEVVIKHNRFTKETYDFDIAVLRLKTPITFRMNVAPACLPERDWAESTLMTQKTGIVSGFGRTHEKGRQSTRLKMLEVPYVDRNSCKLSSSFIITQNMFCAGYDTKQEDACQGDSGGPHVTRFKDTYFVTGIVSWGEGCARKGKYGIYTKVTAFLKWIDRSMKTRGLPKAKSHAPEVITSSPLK

Sequence of plasma derived FIX (pdFIX), activated form pdFIXa (chain): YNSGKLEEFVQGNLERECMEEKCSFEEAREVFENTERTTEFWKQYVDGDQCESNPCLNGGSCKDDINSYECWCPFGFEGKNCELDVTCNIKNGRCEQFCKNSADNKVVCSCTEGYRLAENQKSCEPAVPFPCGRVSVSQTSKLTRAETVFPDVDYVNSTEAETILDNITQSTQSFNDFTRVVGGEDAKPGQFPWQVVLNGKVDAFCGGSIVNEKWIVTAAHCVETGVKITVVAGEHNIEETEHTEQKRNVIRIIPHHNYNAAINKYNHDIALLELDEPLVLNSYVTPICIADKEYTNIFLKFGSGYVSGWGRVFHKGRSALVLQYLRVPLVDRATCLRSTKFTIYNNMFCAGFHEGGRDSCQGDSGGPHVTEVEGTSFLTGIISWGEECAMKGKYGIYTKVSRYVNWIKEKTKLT
Sequence of FIX wild type (recombinant, full length, HEK 293), activated form (chain): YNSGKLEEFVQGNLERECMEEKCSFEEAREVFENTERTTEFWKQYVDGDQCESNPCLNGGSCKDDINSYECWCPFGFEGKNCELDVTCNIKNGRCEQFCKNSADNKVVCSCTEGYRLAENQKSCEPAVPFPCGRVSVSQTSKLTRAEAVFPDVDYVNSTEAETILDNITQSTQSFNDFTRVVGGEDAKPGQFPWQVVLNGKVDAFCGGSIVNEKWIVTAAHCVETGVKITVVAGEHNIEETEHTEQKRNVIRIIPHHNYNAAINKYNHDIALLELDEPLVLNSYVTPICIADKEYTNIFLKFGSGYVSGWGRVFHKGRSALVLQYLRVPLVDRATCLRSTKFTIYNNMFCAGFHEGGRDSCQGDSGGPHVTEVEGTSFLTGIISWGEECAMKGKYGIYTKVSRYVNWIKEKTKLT
Sequence of UniProt P00451 (P00451 other isoform, or with tags, fused parts or gaps): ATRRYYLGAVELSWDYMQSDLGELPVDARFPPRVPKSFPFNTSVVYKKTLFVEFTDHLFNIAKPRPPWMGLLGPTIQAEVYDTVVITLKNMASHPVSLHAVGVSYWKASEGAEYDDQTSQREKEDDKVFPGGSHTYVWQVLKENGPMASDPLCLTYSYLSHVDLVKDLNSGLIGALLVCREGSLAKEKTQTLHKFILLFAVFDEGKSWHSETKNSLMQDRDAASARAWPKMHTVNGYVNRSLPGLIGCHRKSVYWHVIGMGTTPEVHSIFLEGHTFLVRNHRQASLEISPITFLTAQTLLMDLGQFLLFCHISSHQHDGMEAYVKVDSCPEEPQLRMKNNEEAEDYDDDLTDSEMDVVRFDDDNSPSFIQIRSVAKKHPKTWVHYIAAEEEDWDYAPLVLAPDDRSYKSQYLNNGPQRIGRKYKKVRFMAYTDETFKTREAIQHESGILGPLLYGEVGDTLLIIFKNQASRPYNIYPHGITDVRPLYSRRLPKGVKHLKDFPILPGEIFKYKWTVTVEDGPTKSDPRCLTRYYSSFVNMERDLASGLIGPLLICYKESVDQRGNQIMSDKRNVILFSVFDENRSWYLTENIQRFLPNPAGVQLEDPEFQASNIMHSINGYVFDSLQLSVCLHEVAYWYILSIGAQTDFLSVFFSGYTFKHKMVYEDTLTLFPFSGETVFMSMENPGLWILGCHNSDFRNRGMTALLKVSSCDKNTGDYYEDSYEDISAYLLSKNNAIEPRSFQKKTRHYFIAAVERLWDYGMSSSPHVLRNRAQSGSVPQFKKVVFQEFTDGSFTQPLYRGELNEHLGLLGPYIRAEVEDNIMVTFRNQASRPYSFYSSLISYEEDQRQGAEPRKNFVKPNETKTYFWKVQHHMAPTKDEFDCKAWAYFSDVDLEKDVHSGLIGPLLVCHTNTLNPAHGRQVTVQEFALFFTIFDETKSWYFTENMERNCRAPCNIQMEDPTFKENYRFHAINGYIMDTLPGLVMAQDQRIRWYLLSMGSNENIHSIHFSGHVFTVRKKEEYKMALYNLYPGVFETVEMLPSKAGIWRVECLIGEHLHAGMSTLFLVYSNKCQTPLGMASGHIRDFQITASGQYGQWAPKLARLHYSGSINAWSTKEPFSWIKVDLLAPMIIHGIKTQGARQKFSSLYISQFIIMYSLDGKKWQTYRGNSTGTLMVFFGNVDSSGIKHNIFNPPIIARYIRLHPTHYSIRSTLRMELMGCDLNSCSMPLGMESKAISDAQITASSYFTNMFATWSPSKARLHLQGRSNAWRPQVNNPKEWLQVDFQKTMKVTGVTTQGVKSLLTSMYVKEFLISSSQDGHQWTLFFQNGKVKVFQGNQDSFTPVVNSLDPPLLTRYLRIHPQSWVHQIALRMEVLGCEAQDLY

In the case of “plasma derived FIX (pdFIX), activated form pdFIXa”, in data set [1], the “ratio kcat/KM +/- FVIIIa (FX activation)” value was 52,430. Further, in the data set with factor X (FX), the KM (nM), FX activation with FVIIIa is 13 nM; the KM (nM), FX activation without FVIIIa worked out at 65 nM; the kcat (10^-3 min^-1), FX activation without FVIIIa amounted to 0.000217 s⁻¹; the kcat (min^-1), FX activation with FVIIIa turned out to be 131 min⁻¹. Further, in the data set with factor X (FX), the kcat/KM (10^-6 nM^-1 min^-1), FX activation without FVIIIa was 3250 M⁻¹ s⁻¹ and the kcat/KM (nM^-1 min^-1), FX activation with FVIIIa came out at 1.67e+08 M⁻¹ s⁻¹.
On to “FIX wild type (recombinant, full length, HEK 293), activated form”, for which, in data set [1], the “ratio kcat/KM +/- FVIIIa (FX activation)” value is recorded as 36,695. Besides, in the data set with factor X (FX), the KM (nM), FX activation with FVIIIa stood at 11 nM; the KM (nM), FX activation without FVIIIa came to 68 nM; the kcat (10^-3 min^-1), FX activation without FVIIIa stood at 0.000283 s⁻¹; the kcat (min^-1), FX activation with FVIIIa was 102 min⁻¹. In addition, in the data set with factor X (FX), the kcat/KM (10^-6 nM^-1 min^-1), FX activation without FVIIIa is 4200 M⁻¹ s⁻¹; the kcat/KM (nM^-1 min^-1), FX activation with FVIIIa came to 1.5e+08 M⁻¹ s⁻¹; the “rate of FX activation against pdFIXa” value was “FIX-WT and FIX-Y94F/K98T/Y177F activated FX at the same rate as pdFIXa”.

(Values after patent US20080214461.)
